In patent publication WO2023028914A1 (dated 2023) one finds Kd, koff and kon data, which are given here for two molecules.

The experiment deals with T1, human Her3-His recombinant protein (human, UniProt P21860 20-643).
T1 construct: Recombinant His-tagged human Her3; not shown: His tag
Nature of the experiment: BLI (Fortebio Octet 96e), antibody loaded on AMC sensor, human Her3-His 100-3.13 nM in solution. On the technique in general: BLI is a label-free optical method that tracks binding on a fibre tip over time.

T1 sequence (P21860 20-643 limits assumed): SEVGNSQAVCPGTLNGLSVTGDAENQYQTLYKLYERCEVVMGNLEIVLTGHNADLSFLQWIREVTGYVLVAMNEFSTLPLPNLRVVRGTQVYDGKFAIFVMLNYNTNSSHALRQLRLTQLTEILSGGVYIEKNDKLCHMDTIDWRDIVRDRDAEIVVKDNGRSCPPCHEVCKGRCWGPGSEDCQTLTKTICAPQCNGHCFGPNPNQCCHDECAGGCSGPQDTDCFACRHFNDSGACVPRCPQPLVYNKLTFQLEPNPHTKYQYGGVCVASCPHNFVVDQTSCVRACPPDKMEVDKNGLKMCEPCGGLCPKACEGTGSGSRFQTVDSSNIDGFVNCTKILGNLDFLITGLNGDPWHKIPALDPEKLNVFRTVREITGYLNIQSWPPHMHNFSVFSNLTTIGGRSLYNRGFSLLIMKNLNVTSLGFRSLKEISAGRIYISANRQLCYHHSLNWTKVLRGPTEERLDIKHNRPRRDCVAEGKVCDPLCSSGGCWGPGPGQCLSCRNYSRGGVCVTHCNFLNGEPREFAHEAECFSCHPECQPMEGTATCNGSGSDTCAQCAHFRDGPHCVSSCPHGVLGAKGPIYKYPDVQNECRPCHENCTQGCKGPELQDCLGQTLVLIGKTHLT

B1: monoclonal antibody 2F8 (antibody, V domains shown)
VH: QVQLQQWGAGLLKPSETLSLTCAVYGGSFSGYYWSWIRQPPGKGLEWIGEINHSGSTNYNPSLKSRVTISVETSKNQFSLKLSSVTAADTAVYYCARDKWTWYFDLWGRGTLVTVSS
VL: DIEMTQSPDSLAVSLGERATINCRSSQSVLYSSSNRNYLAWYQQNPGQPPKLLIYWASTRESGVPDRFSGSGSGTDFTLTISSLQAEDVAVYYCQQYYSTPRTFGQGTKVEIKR
notes: also called 2F8-new; parental molecule 2F8
Consider B1, for which the Kd worked out at 2.43 nM, the koff amounted to 0.000357 s⁻¹ and the kon was determined as 147000 M⁻¹ s⁻¹.

B2: antibody 3F5 (light chain mutant 2F8-Lm1 combined with heavy chain 2F8-H-new) (antibody, human IgG1, kappa, V domains shown)
VH: QVQLQQWGAGLLKPSETLSLTCAVYGGSFSGYYWSWIRQPPGKGLEWIGEINHSGSTNYNPSLKSRVTISVETSKNQFSLKLSSVTAADTAVYYCARDKWTWYFDLWGRGTLVTVSS
VL: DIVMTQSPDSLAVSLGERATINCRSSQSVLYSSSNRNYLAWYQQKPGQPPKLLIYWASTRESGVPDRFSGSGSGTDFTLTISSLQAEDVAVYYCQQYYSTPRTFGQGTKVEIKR
notes: also called 2F8-m1; 3F5 mutant
In the case of B2, the Kd turned out to be 2.53 nM, the koff amounted to 0.000393 s⁻¹ and the kon was found to be 156000 M⁻¹ s⁻¹.

By Kd is commonly meant a measure of binding affinity in units of concentration. The term koff denotes the rate constant with which the complex falls apart. A word on the kon: it is a measure of how fast the partners come together.
